Tests used:
[1] = molecular target: BRCA1;BARD1 (human?;human?, UniProt P38398;Q99728 1-1863;1-777, |); experiment: EMSA
[2] = molecular target: RAD51 (human, UniProt Q06609 1-339); experiment: single-molecule DNA curtain
[3] = molecular target: RAD51;BRCA1;BARD1 (human;human?;human?, UniProt Q06609;P38398;Q99728 1-339;1-1863;1-777, ||); experiment: single-molecule DNA curtain
[4] = molecular target: BARD1 124-270 (UniProt Q99728 124-270); experiment: EMSA
[5] = molecular target: BRCA1 (UniProt P38398 1-1863); experiment: Southwestern
[6] = molecular target: BARD1 (UniProt Q99728 1-777); experiment: Southwestern
Sequence of BARD1 (Q99728 whole entry): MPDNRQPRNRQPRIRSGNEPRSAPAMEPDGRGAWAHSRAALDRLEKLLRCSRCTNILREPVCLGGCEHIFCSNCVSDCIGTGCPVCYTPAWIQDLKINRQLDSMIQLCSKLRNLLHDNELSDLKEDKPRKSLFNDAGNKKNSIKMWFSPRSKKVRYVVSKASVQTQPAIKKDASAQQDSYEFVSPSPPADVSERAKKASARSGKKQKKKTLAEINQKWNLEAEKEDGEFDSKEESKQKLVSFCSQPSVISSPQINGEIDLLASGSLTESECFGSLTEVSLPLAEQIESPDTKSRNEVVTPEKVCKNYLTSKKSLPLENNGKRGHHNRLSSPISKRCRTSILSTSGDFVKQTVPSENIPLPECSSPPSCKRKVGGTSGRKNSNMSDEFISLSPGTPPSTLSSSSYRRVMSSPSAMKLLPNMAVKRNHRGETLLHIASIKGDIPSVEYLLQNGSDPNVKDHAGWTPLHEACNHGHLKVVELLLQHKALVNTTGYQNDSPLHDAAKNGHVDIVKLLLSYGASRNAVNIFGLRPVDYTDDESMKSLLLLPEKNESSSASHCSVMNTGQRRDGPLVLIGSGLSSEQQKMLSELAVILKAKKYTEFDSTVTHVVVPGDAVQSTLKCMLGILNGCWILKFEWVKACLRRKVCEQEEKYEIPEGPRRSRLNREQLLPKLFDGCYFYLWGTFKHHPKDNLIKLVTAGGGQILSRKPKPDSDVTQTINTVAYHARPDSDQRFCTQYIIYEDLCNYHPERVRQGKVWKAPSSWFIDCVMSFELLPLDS

Sequence of BARD1 124-270 (Q99728 124-270): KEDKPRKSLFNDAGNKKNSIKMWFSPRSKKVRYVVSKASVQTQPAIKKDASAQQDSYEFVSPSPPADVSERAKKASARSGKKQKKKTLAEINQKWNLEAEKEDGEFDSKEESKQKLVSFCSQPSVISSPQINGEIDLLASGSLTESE
Sequence of RAD51 (Q06609 whole entry): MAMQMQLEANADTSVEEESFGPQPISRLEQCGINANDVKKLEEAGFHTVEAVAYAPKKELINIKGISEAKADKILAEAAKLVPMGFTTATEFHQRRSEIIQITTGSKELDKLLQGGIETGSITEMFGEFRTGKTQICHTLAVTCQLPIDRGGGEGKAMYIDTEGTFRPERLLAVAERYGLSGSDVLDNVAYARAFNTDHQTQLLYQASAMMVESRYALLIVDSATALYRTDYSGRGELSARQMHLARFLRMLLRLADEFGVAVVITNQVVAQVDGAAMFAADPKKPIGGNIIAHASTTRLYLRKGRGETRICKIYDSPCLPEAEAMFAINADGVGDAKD

B1: replication fork (RF) (mixed)
DNA 1: GACGCTGCCGAATTCTACCAGTGCCTTGCTAGGACATCTTTGCCCACCTGCAGGTTCACCC
DNA 2: GGACATCTTTGCCCACCTGCAGGTTCACCC
DNA 3: TGGGTGAACCTGCAGGTGGGCAAAGATGTCC
DNA 4: GGGTGAACCTGCAGGTGGGCAAAGATGTCCCAGCAAGGCACTGGTAGAATTCGGCAGCGTC
binding result [1]: binds

B2: Atto565 dsDNA 70 bp with 9-nt homology (dsDNA)
DNA 1: CCGGAGGCCTTAGGCCTTAGGCCTTAGGCCTTCAGCTGTTAGCCTTAGCTAGCTAGCTAGCTAGCTAGCT
DNA 2: AGCTAGCTAGCTAGCTAGCTAGCTAAGGCTAACAGCTGAAGGCCTAAGGCCTAAGGCCTAAGGCCTCCGG
binding result [2]: binds | binding result [3]: binds

B3: D-loop (mixed)
DNA 1: CATTGCATATTTAAAACATGTTGGAAGGCTCGATGCATGCTGATAGCCTACTAGTGCTGCTGGCTTTCAAATGACCTCTTATCAAGTGAC
DNA 2: GTCACTTGATAAGAGGTCATTTGAATTCATGGCTTAGAGCTTAATTGCTGAATCTGGTGCTGGGATCCAACATGTTTTAAATATGCAATG
DNA 3: CTGCTACGATGCTAGTCGTAGCTCGGCAGTCGTAGCAGGTTCCCAGCACCAGATTCAGCAATTAAGCTCTAAGCCATGAA
binding result [4]: binds | binding result [1]: binds | binding result [5]: binds | binding result [6]: binds

B4: DNA bubble (mixed)
DNA 1: CATTGCATATTTAAAACATGTTGGAAGGCTCGATGCATGCTGATAGCCTACTAGTGCTGCTGGCTTTCAAATGACCTCTTATCAAGTGAC
DNA 2: GTCACTTGATAAGAGGTCATTTGAATTCATGGCTTAGAGCTTAATTGCTGAATCTGGTGCTGGGATCCAACATGTTTTAAATATGCAATG
binding result [4]: binds | binding result [1]: binds
